Experimental data reported in publication PMC8429565, “Conformational rearrangements enable iterative backbone N-methylation in RiPP biosynthesis” (Nature Communications, 2021).
Where a chain is given by its changes, count along the chain named.

T1: his6-SonM-Y71F, individually expressed (Shewanella oneidensis MR-1, UniProt Q8EGW3 1-263, SonM-Y71F)
T1 sequence (looked up): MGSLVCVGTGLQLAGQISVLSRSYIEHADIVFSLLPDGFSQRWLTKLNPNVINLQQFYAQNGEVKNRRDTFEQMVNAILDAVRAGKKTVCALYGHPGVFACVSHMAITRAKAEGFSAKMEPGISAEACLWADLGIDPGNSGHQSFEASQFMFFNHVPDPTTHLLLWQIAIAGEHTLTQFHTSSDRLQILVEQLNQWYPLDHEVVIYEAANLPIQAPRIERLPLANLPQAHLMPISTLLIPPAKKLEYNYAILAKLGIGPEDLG

T2: his6-SonM-Y58F, individually expressed (Shewanella oneidensis MR-1, UniProt Q8EGW3 1-263, SonM-Y58F)
T2 sequence (looked up): T1 sequence (looked up) with Y58F, F71Y

T3: his6-SonM-R67K, individually expressed (Shewanella oneidensis MR-1, UniProt Q8EGW3 1-263, SonM-R67K)
T3 sequence (looked up): T1 sequence (looked up) with R67K, F71Y

T4: his6-SonM-Y93F, individually expressed (Shewanella oneidensis MR-1, UniProt Q8EGW3 1-263, SonM-Y93F)
T4 sequence (looked up): T1 sequence (looked up) with F71Y, Y93F

B1: unmethylated SonA precursor peptide (SonA-0Me), his6-tagged (natural protein, Shewanella oneidensis MR-1, UniProt Q8EGW2 1-71, looked up)
chain: MSGLSDFFTQLGQDAQLMEDYKQNPEAVMRAHGLTDEQINAVMTGDMEKLKTLSGDSSYQSYLVISHGNGD
B2: doubly α-N-methylated SonA precursor peptide (SonA-2Me), his6-tagged (natural protein, Shewanella oneidensis MR-1, UniProt Q8EGW2 1-71, looked up)
chain: B1 chain
modifications: N-methyl-L-leucine (MLE) at 63; N-methyl-L-isoleucine (IML) at 65 (backbone α-N-methylations)
notes: SonA (SO1479), borosin precursor peptide of Shewanella oneidensis MR-1; BBD leader 1-53, linker 54-61, core peptide 62-71; also called doubly methylated SonA; SO1479; source: E. coli BL21(DE3), co-expressed from pET28b with SonM, purified (Ni-NTA or HisTrap, Superdex 200 SEC)
B3: SonA borosin binding domain only construct (SonA-BBD; 1-55) (domain or fragment, Shewanella oneidensis MR-1, UniProt Q8EGW2 1-55, looked up)
chain: MSGLSDFFTQLGQDAQLMEDYKQNPEAVMRAHGLTDEQINAVMTGDMEKLKTLSG
notes: SonA (SO1479) of Shewanella oneidensis MR-1, helical bundle composed of the first 55 amino acids (1-55); The his6 tag is stated for the individual construct; for the co-expression construct it is surmised from the template plasmid pMF1181; also called BBD-SonA; his6-SonA-BBD
B4: his6-SonM, wild type, individually expressed (enzyme, Shewanella oneidensis MR-1, UniProt Q8EGW3 1-263, looked up)
chain: T1 sequence (looked up) with F71Y
notes: SonM (SO1478), α-N-methyltransferase of Shewanella oneidensis MR-1, 263 AA; gene sonM amplified from genomic DNA; also called wt; source: E. coli BL21(DE3), pET28b, purified (Ni-NTA or HisTrap, Superdex 200 SEC); not shown: His6, N-terminal, kept

How the values were obtained:
[1] = biological target: T1, his6-SonM-Y71F, individually expressed; assay: cell-based or functional assay
[2] = biological target: B4; assay: cell-based or functional assay
[3] = biological target: T2, his6-SonM-Y58F, individually expressed; assay: cell-based or functional assay
[4] = biological target: T3, his6-SonM-R67K, individually expressed; assay: cell-based or functional assay
[5] = biological target: T4, his6-SonM-Y93F, individually expressed; assay: cell-based or functional assay
[6] = biological target: B4; assay: enzyme inhibition kinetics (continuous coupled methyltransferase assay, A340); apparent Ki; 5 μM wt SonM, saturating SAM (1 mM), varying concentrations of SonA and of the inhibitor (SonA-BBD or SonA-2Me); non-linear regression in GraphPad Prism 8; details: both partners purified
[7] = biological target: the molecule itself; assay: SEC; oligomeric state of individually expressed and purified SonM and SonA (Supplementary Fig. 6); Superdex 200 in 50 mM HEPES pH 8, 300 mM NaCl, 10% glycerol is the sizing step of the purification

Binder: B1
apparent KM for SonA, coupled methyltransferase kinetics assay, saturating SAM [1]: 9.6 µM
apparent KM for SonA, coupled methyltransferase kinetics assay, saturating SAM [2]: 8.2 µM
apparent KM for SonA, coupled methyltransferase kinetics assay, saturating SAM [3]: 7.6 µM
apparent KM for SonA, coupled methyltransferase kinetics assay, saturating SAM [4]: 18 µM
apparent KM for SonA, coupled methyltransferase kinetics assay, saturating SAM [5]: 6.2 µM

Binder: B2
Ki [6]: 160 µM

Binder: B3
Ki [6]: 3.9 µM

Binder: B4
stoichiometry N [7]: 2
